Source: patent US20190144541A1 (BEIJING DONGFANG BIOTECH, published 2019)

Tests used:
PD-1 on PD1-CHO cells = biological target: T1, PD-1 on PD1-CHO cells; assay: cell ELISA on fixed PD1-CHO cells, anti-human Fc-HRP
T1 construct: also called cell-surface PD-1
Method: Firstly, the CHO cell line with stable PD-1 over-expression was made and named PD1-CHO. After coating 96-well plates with gelatin, PD1-CHO cells was digested by trypsin and then stopped. After centrifuging and suspending these cells, the cells were diluted to 2×10⁵ cells/mL, 100 μL per well in 96-well plates, totally 12 well×6 row, namely 2×10⁴ cells/well, and cultured at 5% CO₂, 37° C. overnight. The culture medium were discarded the next day, and the wells were washed one time with 350 μL precooling PBS. Freshly prepared 2% PFA was added to fix 5 minutes, and then PBS was used to wash two times.
The full-length anti-PD-1 antibody of double dilution was added into the cell plates, the diluent is PBS with 0.5% BSA. Sample concentration started from 100 μg/mL, diluting for 8 times, totally 12 gradients of dilution. After incubating for 30 minutes at room temperature, supernatant was discarded, and wells were washed three times with 350 μL pre-cooled PBS. The anti-human Fc-HRP Secondary antibodies diluted at 1:5000 were added, and incubated for 15 minutes at room temperature. After washing three times with 350 μL PBS, 100 μL TMB stain solution was added into each well, staining for 15 to 30 minutes at room temperature. After adding 50 μL2 mol/L H2504 per well to stop the staining, the optical density was read at 450 nm and 630 nm wavelength with the microplate reader.

PD-1-His [1] = biological target: T2, PD-1-His (UniProt Q15116 25-167, limits assumed); assay: ELISA on coated PD-1-His (60 ng/well), anti-human Fc-HRP
T2 construct: also called antigen PD-1-His; not shown: His tag
Method: After washing five times with 300 μl/well PBST, the wells were blocked for two hours with 1% BSA-PBS at 37° C. Different dilution of the antibodies DFPD1-9, DFPD1-10, DFPD1-11, DFPD1-12 and DFPD1-13 were added. The highest concentration of these five kinds of antibodies is 16 μg/mL, diluted for 4 times to 11 gradients, and the last well was used as the negative control which was added PBS diluent only. After incubating at 37° C. for one hour, the wells were washed five times with 300 μL/well of PBST, then adding the anti-human Fc-HRP secondary antibodies diluted at 1:40000 with 1% BSA-PBS, incubating at 37° C. for one hour. After staining with TMB stain solution kit, 100 μL/well, for 8 minutes at room temperature, the reaction was stopped with 50 µL of 2 mol/L H₂SO₄/well, and the optical density was determined at 450 nm and 630 nm wavelength.

[2] = biological target: T3, PD-1 (analyte in the BIAcore X100 assay) (UniProt Q15116 25-167, limits assumed); assay: SPR, BIAcore X100, antibody captured by anti-human IgG on CM5 chip, PD-1 as analyte
T3 construct: also called Programmed Cell Death 1
Method: The affinity of the antibodies were determined by ligand-capture method. Anti-human IgG was coupled to the surface of CM5 chip, and DFPD1-9, DFPD1-10, DFPD1-11, DFPD1-12 and DFPD1-13 were diluted respectively to ensure the capturing about 300 RU of the antibody by the anti-human IgG.

PD-1-His [3] = biological target: T2, PD-1-His; assay: competition ELISA: antibody premixed with 4 ug/mL PD1-His, added to coated PDL1-Fc, bound PD1-His detected with anti-His-HRP
Method: PDL1-Fc in pH9.6 carbonate buffer solution was used for coating plates at 4° C. for overnight. After washing five times with PBST, the wells were blocked for two hours with 1% BSA-PBS at 37° C. […] After incubating at 37° C. for one hour, the wells were washed five times with PBST, and then the mouse anti-His antibody HRP labeled with 1% BSA-PBS diluted were added. After incubating at 37° C. for one hour, the wells were stained with TMB stain solution kit, 100 μL/well, for 8 minutes at room temperature. The reaction was stopped with 50 µL of 10% H₂SO₄/well. The optical density was read at 450 nm and 630 nm wavelength. The result is shown in FIG. 16, DFPD1-9, DFPD1-10, DFPD1-11, DFPD1-12 and DFPD1-13 can inhibit the binding of PD-1 and PD-L1.

T1 sequence (chain, as listed by the source limits assumed): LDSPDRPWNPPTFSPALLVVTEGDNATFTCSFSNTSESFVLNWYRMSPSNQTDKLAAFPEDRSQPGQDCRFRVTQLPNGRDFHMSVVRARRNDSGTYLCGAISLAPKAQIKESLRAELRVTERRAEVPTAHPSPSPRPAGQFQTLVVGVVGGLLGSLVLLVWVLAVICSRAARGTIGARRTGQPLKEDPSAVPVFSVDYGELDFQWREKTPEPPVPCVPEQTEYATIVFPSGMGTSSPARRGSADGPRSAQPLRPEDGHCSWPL
T3 sequence (Q15116 25-167 limits assumed): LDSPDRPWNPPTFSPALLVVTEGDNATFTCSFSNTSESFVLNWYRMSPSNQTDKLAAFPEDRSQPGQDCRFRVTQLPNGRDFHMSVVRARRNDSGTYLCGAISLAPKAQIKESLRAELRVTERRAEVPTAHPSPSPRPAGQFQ
T2 sequence (Q15116 25-167 limits assumed): as above

| Binder | EC50 (read off the curve) (PD-1 on PD1-CHO cells) | EC50 (read off the curve) (PD-1-His [1]) | Kd [2] | koff [2] | kon [2] | IC50 (read off the curve) (PD-1-His [3]) |
| --- | --- | --- | --- | --- | --- | --- |
| DFPD1-9 full-length anti-PD-1 monoclonal antibody (antibody, human IgG4 S228P, kappa, V domains shown, Expressed in HEK293E cells and purified on protein A) VH: QVQLVESGGGVVQPGRSLRLDCKASGITFSNYGMHWVRQAPGKGLEWVAVIWYDSSRKYYADSVKGRFTISRDNSKNTLFLQMNSLRAEDTAVYYCATNNDYWGQGTLVTVSS VL: DIQMTQSPSSLSASVGDRVTITCRASQSIHNYLDWYQQKPGKAPKLLIYNASTRATGVPSRFSGSGSGTDFTLTISSLQPEDFATYYCQQELHLPLTFGQGTKVEIKR | ~2 nM | ~0.006 µg/mL | 6.43 nM | 0.000105 s⁻¹ | 16300 M⁻¹ s⁻¹ | ~0.1 µg/mL |
| DFPD1-10 full-length anti-PD-1 monoclonal antibody (antibody, human IgG4 S228P, kappa, V domains shown, Expressed in HEK293E cells and purified on protein A) VH: QVQLVESGGGVVQPGRSLRLDCKASGITFSNYGMHWVRQAPGKGLEWVAVIWYDSSRKYYADSVKGRFTISRDNSKNTLFLQMNSLRAEDTAVYYCATNNDYWGQGTLVTVSS VL: DIQMTQSPSSLSASVGDRVTITCRASQSVSNYLDWYQQKPGKAPKLLIYDASTRATGVPSRFSGSGSGTDFTLTISSLQPEDFATYYCQQNMQLPLTFGQGTKVEIKR | ~0.9 nM | ~0.007 µg/mL | 3.96 nM | 0.00013 s⁻¹ | 32800 M⁻¹ s⁻¹ | ~0.1 µg/mL |
| DFPD1-12 full-length anti-PD-1 monoclonal antibody (antibody, human IgG4 S228P, kappa, V domains shown, Expressed in HEK293E cells and purified on protein A) VH: QVQLVESGGGVVQPGRSLRLDCKASGITFSNYGMHWVRQAPGKGLEWVAVIWYDGSKKYYADSVKGRFTISRDNSKNTLFLQMNSLRAEDTAVYYCATNNDYWGQGTLVTVSS VL: DIQMTQSPSSLSASVGDRVTITCRASQSIHNYLDWYQQKPGKAPKLLIYNASTRATGVPSRFSGSGSGTDFTLTISSLQPEDFATYYCQQELHLPLTFGQGTKVEIKR | ~2 nM | ~0.006 µg/mL | 22.4 nM | 0.000298 s⁻¹ | 13300 M⁻¹ s⁻¹ | ~0.05 µg/mL |
| DFPD1-11 full-length anti-PD-1 monoclonal antibody (antibody, human IgG4 S228P, kappa, V domains shown, Expressed in HEK293E cells and purified on protein A) VH: QVQLVESGGGVVQPGRSLRLDCKASGITFSNNGMHWVRQAPGKGLEWVAVIWYDSSRKYYADSVKGRFTISRDNSKNTLFLQMNSLRAEDTAVYYCATNNDYWGQGTLVTVSS VL: DIQMTQSPSSLSASVGDRVTITCRASQSIHNYLDWYQQKPGKAPKLLIYNASTRATGVPSRFSGSGSGTDFTLTISSLQPEDFATYYCQQELHLPLTFGQGTKVEIKR | ~4 nM | ~0.006 µg/mL | 10.8 nM | 0.000102 s⁻¹ | 9360 M⁻¹ s⁻¹ | ~0.07 µg/mL |
| DFPD1-13 full-length anti-PD-1 monoclonal antibody (antibody, human IgG4 S228P, kappa, V domains shown, Expressed in HEK293E cells and purified on protein A) VH: QVQLVESGGGVVQPGRSLRLDCKASGITFSNNGMHWVRQAPGKGLEWVAVIWYDSSRKYYADSVKGRFTISRDNSKNTLFLQMNSLRAEDTAVYYCATNNDYWGQGTLVTVSS VL: DIQMTQSPSSLSASVGDRVTITCRASQSVSNYLDWYQQKPGKAPKLLIYDASTRATGVPSRFSGSGSGTDFTLTISSLQPEDFATYYCQQNMQLPLTFGQGTKVEIKR | ~2 nM | ~0.008 µg/mL | 9.5 nM | 0.000108 s⁻¹ | 18100 M⁻¹ s⁻¹ | ~0.08 µg/mL |
